Measured values as given in the DeepSol protein solubility set.

Test: soluble on expression in E. coli; label from the status in PepcDB or PDB records

Sequence | soluble on expression in E. coli
MGSDKIHHHHHHMTTLISFLGKGIADKTTGYRTATYRFDDDSKHTTPYFGLALAGYLRPERLILVGTAGSMWDVFFEQQDASDDDVLALIDAVRESRVDADMLSAQEKRLTKRLGLPVICRLIPYARDAAEQTEVLLTLAKLVHRSEEVFLDVTHGFRHLPMLALVAARYLAHVKDVKVRGLYYGALEMTSTNGETPVLQLDGMLQMLDWVESLATYNKDGDYGVFASLLQQDGLPEGKAKQLTRAAYFERSSNPVKARETLGSVFSAIKTHNGPMGVLFRDALTERINWFKEPDRAAWELALADAYLERRDYVRAVIYLYESFVTRAVLEHKLNPNDFSERDEAWKDARQDNKQVRKLEYLRNALAHGIKSDDKEIIRMVNDENCLDDQLKKFRRSLFN | not soluble
MTLIPPVQAIAGTSAAATQALSPVATPNQALVNRFQALMQSSSPLPPAMQRVGNPSMMSRVVDVQNDGVRTIAEHIDAFSMQAPTMGLQEMAAQQIKLMHELTMVGFNLNVSVGVAQSGKNAVQTLVKNQ | not soluble
MAHHHHHHMSPAADTTHSTTKPCAPNRSSIPETCSRAPNGTRASAADEVTLLTAPQFAKSTKDTRSTARQQEEQLSDVLVLIRHGERQDHVDRAWKGNALLPLYDPPLSNAGRMQSFETALRYFALRQERKVEKRIRGTFTLFLVSPFHRCIETAAVMNVIAFEGRLPMYVEPFLSDWQQAKVFRTAPVLGGSYTTSGRPSVPGAKGDRLLFRPQVEALRVTLIPFLKTRAAEETELLAEYKIGAEVASAWTTLAEEWLNTHTALPVWTCAAATNVIEAKVASRSDGASDVRATSRKAAKGSQPSPRDASNEGYRGCGVAHPEGKSDLLRRCEQVMSTHFLRCAAVASDTMVPLAIQTAVAAERTTRLPKYFQIWAERPEENRESAGPPALLPPMHIMAITHADVVSTLLEVCCPKYHDKGAGYSVPYCSVTTLQRHNNYYRIPTAEERRRREASASTLAPAQNRGKCYAKKKGNTPSSKNQLMTPIRTRPLSPLSVEWNVEAVGSTDLLRTRIVIQYTK | soluble
MKLACKIYNTLRWADIYFYQRDGKGLTQTELRQLALDLRKQDDEYKQLYSQVVQQIADRYYEARQRFFEGLARFPKEKKPHKYYSLVYPQYGWKILQVREIRKGSKKNKKRLITLKLSNLGTFKVIIHRDFPLDKVKRVVVKLTRSERIYITFVVEDYEFPKLPNTGKVVAIDVGIEKLIVTSDGEYFPNLRPYEKALWKVKHLHRELSRKKFLSNNWFKAKVKLARAYEHLKNLRTDLYMKLGKWFAEHYDVVVMEDIHVKQLIGKSLRSLRRRLSDVAFSELRDLIKYQLEKYGKKLILVNPAYTSKTCARCGYVKEDLSLSDRVFVCSNCGWIADRDYNASLNILRGSGSERPLVWSSALYQYQHFGTGMAELLEHHHHHH | soluble
MAHHHHHHMHMNNYHYNNYNVNFNPYNCGVVQESEKKNVGNVNNKVVLQKNYSNEYEMKYKEENKNNKINYLENLLNEPTAKEKKIKEEKTNILSIIEAPTVIEEMRIKKFQKKDDSVKIICPYLTKKVCQKHNKECNKVHFKKIISEHTDVSLGDCSYLDTCRHIETCKFVHYAVDKDDQQMNMNTQENLSQSKLSFSSNIKENVYGPQWIRCDLRNFDLSIFNKYVSVVMADPPWDIHMDLPYGTMTDNEMKLLPVQLIQDEGMIFLWVTGRAMELARECLQIWGYKRVEEILWVKTNHLQRIIRTGRTGHWLNHSKEHCLVGIKGNPIINRNIDCNVIVSEVRETSRKPDEIYSLIERLCPQNLKIELFGRPHNCRSNWITLGNQLNGVVLHHPQIKERYNKVATQFNLPLCEK | not soluble
MSLSSARADRLRSHQTRVIGLILTDIANPFYTEIAAGTIDAARARGYEVFLAHTQEDPQTLRSIVDTMIARQVDGVVITVLHPDDGEVIRSLRSARIPLVQLSRRIQRVDADFVGIDDRAAASEMMEHVVTHGYQDIVTVVGPRTSSASAAREEGFIRTAEAHGIRTVSSQRISTYLSERGGYEAVEQVLARKSLPRVIVCGSDVIALGAISALRERSLNVPDDVAVTGFDGLYPGPLVELTTINQPRREMAEQSIELLTRRIEGAGGSYQSVLRAHQLRIGTTCGCPRMRPHLAAEGHHHHHH | not soluble
MRRMVDHDALHRRWLGALVGARGGAAQPDPAPYGENLLRRWSEPQRRYHTVEHLAAVLDRVDLLAEYADDPDVVRLAAWFHDAVYFPDRSENEERSARLAERALPEAGVSGARTAEVARLVRLTVTHDPADDDRDGRVLCDADLAILAAPPKTYAAYAAAVREEYAFVPDDSFRAGRAAVLRQLLDLPRLFRTPYGEREWEERARENLREELARLDDRGTSGAAQLEHHHHHH | not soluble
MKIYYEGYGCTLNQGETGLYVNKLLSEGSVLVSRPDEADISIIGTCAVIQKTEDHMLKRIEELSRLGRVKVIGCLSAIKGSEISGGNIEAIDRNEFQQFQEYLEDTSIIDAEIMSGIPINQGCTGKCNFCISHIARGKLVSRRPEKIVNQIRMMVAAGKREIRISSLDTAAYGKDTGYRLPSLIKDITAVDGDFMLRVGMMEPRNTIEILDDLLEAYDDPKVFKFLHIPVQSGDDRVLTAMNREYTVDEFMQIIESFRKRFPDMTISTDVIIGYHAENDRSFDLTCDLIRKVQPEIINVTRFSPRELTPDFEHRPRPTNVLKDQDRTMAEIHRKIVSERFSALVGKVERILITEDGKPGTMVGRDASYRPVVIRAPAEKYTWHSARIIGYENTSLIGELVDLEHHHHHH | soluble
MSLNPNDFKDELKSVALEKANVNLRLDGDISWSFFPWLGLGLEDIGVSIGSDPEILQFDRAEFGLAILPLLKQKIQVDKVNLVNLKASLNKNAQGQGNWQLDLPDSTPAASSSIPATTASTASSTSANDTVEKLKLPDIQLDELRIENAQVQYRDEQTKQLINATLNVQLNDVQWDKAWPMVMDIAVTQSDLQGKSPIKAKATLNANLAVFPEREALSLDSLVLSADVESELLPTSPISAKLSAANVDVDLPQENVLAEGLALSVLGVNVDAKIQAYQVLSEPQFSAVLTVGEFNPRYLMTRLNLPLPEMSDDTAMTKARANVTLEGSLDSITAQPISITIDDTNIEANAVVDLSPLRWDVSVAGKNLDLDRYLPTPVEKGKDGKVEAITDVDIAAKTESGDLIPIDLIRSLNGHVGMVFENLTAKKLKIDKIELDSTQSNGLVKISPLRAYLYKGSVSSKASLDVRGITPVFNISPAIDGVQIQPLLVDFMDMNKIAGATYLNGELKAKGNSVDDLMSSLQGDLLIDIKKGALVGTNLTKTVCEGIAAVRKEKIDEQQFGPDTPFETMRFPAHIVNGRVSTPGLKISSAGIQVTGDGVVSLPNSSLDYQANVGIAGSELDKACHVNEKVTKLAFPIVCKGKFSDDPAGLCRPDIKGFGKLFADLAEDELKLKVDAEKARLKEGHHHHHH | soluble
MGSDKIHHHHHHMDRINYKHLHYFWHVARAGSVTRAAGQLNVSMQTISGQITKLEQQLGRSLFRQQGRGLALTEAGRLALDYADRIFLLGEELETALADPLLDQTLRLAAGISDVVPKGIASRLLRPALRTNGRLRLSCGEGDFDELIGELGRHRLDLVLADRPVASGEQQQFQSWPLLRCPVQLLAAPELHARCQAGFPASLEQAPLLLPSRDNVLRRQLEHWFDANGVRPDLVGEFDDHALMETFARQGLGLLPAPVSPDGEADHPGLLPLGALDGVWEHYYVTASRRKLQHPALQAILQAWT | not soluble
MSGNRGGSYISGIVPSFKERRPFHERQKDVEEIRSQQPNKVPVIIERFDGERSLPLMDRCKFLVPEHITVAELMSIVRRRLQLHPQQAFFLLVNERSMVSNSMSMSNLYSQERDPDGFVYMVYTSQPAFG | not soluble
MSLSYLPGTTFEGQWESLYFGNNIKERLYSYATISLKIARFKQTGDSNQEDITTLITNNKLLLVHGPPGTGKTTLCKALCQKLSVRREFSDGSDTIDTNYKGIIIELSCARIFSKWFGESSKNISIVFKDIEELLKVNEGRGIFICLLIDEVEAIASSRTNLSSRNESTDGIRVVNTLLTQLDRLKKYHNFLALATSNLLDSLDDAFVDRADGVFYVGNPTAEGILHILKVCIEEMITSGIILFHARSTGVKFFNKYQDILRKIAIKCSVCFFLLFYFYDSFSFFPSEGHHHHHH | soluble
VVIPSPCCMFFVSKRIPENRVVSYQLSSRSTCLKAGVIFTTKKGQQSCGDPKQEWVQRYMKNLDAKQKKASPR | soluble
